Source: the supplement of paper PMC11246515
± gives the standard deviation of the averaged measurements.

Test: total protein half-life in vivo (active degradation + dilution); higher = more stable protein
[1] = E. coli NCM3722 delta-clpP delta-lon delta-hslV, growth: N-lim chemostat, doubling time 6 h
[2] = E. coli NCM3722 delta-clpP, growth: N-lim chemostat, doubling time 6 h
[3] = E. coli NCM3722 delta-smpB, growth: N-lim chemostat, doubling time 6 h
[4] = wild type E. coli NCM3722, growth: N-lim chemostat, doubling time 6 h
[5] = wild type E. coli NCM3722, growth: P-lim chemostat, doubling time 12 h
[6] = E. coli NCM3722 delta-hslV, growth: N-lim chemostat, doubling time 6 h
[7] = E. coli NCM3722 delta-lon, growth: N-lim chemostat, doubling time 6 h
[8] = wild type E. coli NCM3722, growth: C-lim chemostat, doubling time 6 h
[9] = wild type E. coli NCM3722, growth: C-lim chemostat, doubling time 12 h
[10] = wild type E. coli NCM3722, growth: N-lim chemostat, doubling time 12 h
[11] = wild type E. coli NCM3722, growth: P-lim chemostat, doubling time 6 h
[12] = wild type E. coli NCM3722, growth: C-lim chemostat, doubling time 3 h

Sequence	total protein half-life in vivo [1] [h]	total protein half-life in vivo [2] [h]	total protein half-life in vivo [3] [h]	total protein half-life in vivo [4] [h]	total protein half-life in vivo [5] [h]	total protein half-life in vivo [6] [h]	total protein half-life in vivo [7] [h]	total protein half-life in vivo [8] [h]	total protein half-life in vivo [9] [h]	total protein half-life in vivo [10] [h]	total protein half-life in vivo [11] [h]	total protein half-life in vivo [12] [h]
MSIVVKNNIHWVGQRDWEVRDFHGTEYKTLRGSSYNSYLIREEKNVLIDTVDHKFSREFVQNLRNEIDLADIDYIVINHAEEDHAGALTELMAQIPDTPIYCTANAIDSINGHHHHPEWNFNVVKTGDTLDIGNGKQLIFVETPMLHWPDSMMTYLTGDAVLFSNDAFGQHYCDEHLFNDEVDQTELFEQCQRYYANILTPFSRLVTPKITEILGFNLPVDMIATSHGVVWRDNPTQIVELYLKWAADYQEDRITIFYDTMSNNTRMMADAIAQGIAETDPRVAVKIFNVARSDKNEILTNVFRSKGVLVGTSTMNNVMMPKIAGLVEEMTGLRFRNKRASAFGSHGWSGGAVDRLSTRLQDAGFEMSLSLKAKWRPDQDALKLCREHGREIARQWALAPLPQSTVNTVVKEETSATTTADLGPRMQCSVCQWIYDPAKGEPMQDVAPGTPWSEVPDNFLCPECSLGKDVFEELASEAK	5.32 ± 0.78	3.24	1.57	2.75	10.1 ± 7.1							
MSIYKIPLPLNILEAARERITWTLNTLPRVCVSFSGGKDSGLMLHLTAELARQMGKKICVLFIDWEAQFSCTINYVQSLRELYTDVIEEFYWVALPLTTQNSLSQYQPEWQCWEPDVEWVRQPPQDAITDPDFFCFYQPGMTFEQFVREFAEWFSQKRPAAMMIGIRADESYNRFVAIASLNKQRFADDKPWTTAAPGGHSWYIYPIYDWKVADIWTWYANHQSLCNPLYNLMYQAGVPLRHMRICEPFGPEQRQGLWLYHVIEPDRWAAMCARVSGVKSGGIYAGHDNHFYGHRKILKPEHLDWQEYALLLLNSMPEKTAEHYRNKIAIYLHWYQKKGIEVPQTQQGDIGAKDIPSWRRICKVLLNNDYWCRALSFSPTKSKNYQRYNERIKGKRQEWGILCNND	5.55					6.21	4.82					
MSKARRWVIIVLSLAVLVMIGINMAEKDDTAQVVVNNNDPTYKSEHTDTLVYNPEGALSYRLIAQHVEYYSDQAVSWFTQPVLTTFDKDKIPTWSVKADKAKLTNDRMLYLYGHVEVNALVPDSQLRRITTDNAQINLVTQDVTSEDLVTLYGTTFNSSGLKMRGNLRSKNAELIEKVRTSYEIQNKQTQP [P0ADV9]	5.91 ± 0.18	5.86 ± 0.15	6.78 ± 0.24	5.55 ± 0.17	11.98 ± 0.014	5.92 ± 0.41	5.82 ± 0.13	5.98 ± 0.17	11.2 ± 1.9	11.1 ± 0.99	5.85 ± 0.087	
MSKATEQNDKLKRAIIISAVLHVILFAALIWSSFDENIEASAGGGGGSSIDAVMVDSGAVVEQYKRMQSQESSAKRSDEQRKMKEQQAAEELREKQAAEQERLKQLEKERLAAQEQKKQAEEAAKQAELKQKQAEEAAAKAAADAKAKAEADAKAAEEAAKKAAADAKKKAEAEAAKAAAEAQKKAEAAAAALKKKAEAAEAAAAEARKKAATEAAEKAKAEAEKKAAAEKAAADKKAAAEKAAADKKAAEKAAAEKAAADKKAAAEKAAADKKAAAAKAAAEKAAAAKAAAEADDIFGELSSGKNAPKTGGGAKGNNASPAGSGNTKNNGASGADINNYAGQIKSAIESKFYDASSYAGKTCTLRIKLAPDGMLLDIKPEGGDPALCQAALAAAKLAKIPKPPSQAVYEVFKNAPLDFKP		6.28 ± 0.72	5.79 ± 0.58	5.85 ± 0.2	12.3 ± 0.83	6.23 ± 0.21		6.022 ± 0.019	11.6 ± 1.8	12.7 ± 1.3	5.49 ± 0.21	3.23 ± 0.71
MSKEHTTEHLRAELKSLSDTLEEVLSSSGEKSKEELSKIRSKAEQALKQSRYRLGETGDAIAKQTRVAAARADEYVRENPWTGVGIGAAIGVVLGVLLSRR	5.56 ± 0.57	6.08 ± 0.86	4.81 ± 0.094	5.47 ± 0.066	10.7 ± 1.2	5.45 ± 0.11	6.206 ± 0.014	5.64 ± 0.14	9.35 ± 1.2	9.88 ± 0.33	5.55 ± 0.1	2.81 ± 0.54
MSKHDTDTSDQHAAKRRWLNAHEEGYHKAMGNRQVQMIAIGGAIGTGLFLGAGARLQMAGPALALVYLICGLFSFFILRALGELVLHRPSSGSFVSYAREFLGEKAAYVAGWMYFINWAMTGIVDITAVALYMHYWGAFGGVPQWVFALAALTIVGTMNMIGVKWFAEMEFWFALIKVLAIVTFLVVGTVFLGSGQPLDGNTTGFHLITDNGGFFPHGLLPALVLIQGVVFAFASIEMVGTAAGECKDPQTMVPKAINSVIWRIGLFYVGSVVLLVMLLPWSAYQAGQSPFVTFFSKLGVPYIGSIMNIVVLTAALSSLNSGLYCTGRILRSMAMGGSAPSFMAKMSRQHVPYAGILATLVVYVVGVFLNYLVPSRVFEIVLNFASLGIIASWAFIIVCQMRLRKAIKEGKAADVSFKLPGAPFTSWLTLLFLLSVLVLMAFDYPNGTYTIAALPIIGILLVIGWFGVRKRVAEIHSTAPVVEEDEEKQEIVFKPETAS		4.52		4.73		4.74 ± 0.064	4.87		11.4	10.3		> 4
MSKIFDFVKPGVITGDDVQKVFQVAKENNFALPAVNCVGTDSINAVLETAAKVKAPVIVQFSNGGASFIAGKGVKSDVPQGAAILGAISGAHHVHQMAEHYGVPVILHTDHCAKKLLPWIDGLLDAGEKHFAATGKPLFSSHMIDLSEESLQENIEICSKYLERMSKIGMTLEIELGCTGGEEDGVDNSHMDASALYTQPEDVDYAYTELSKISPRFTIAASFGNVHGVYKPGNVVLTPTILRDSQEYVSKKHNLPHNSLNFVFHGGSGSTAQEIKDSVSYGVVKMNIDTDTQWATWEGVLNYYKANEAYLQGQLGNPKGEDQPNKKYYDPRVWLRAGQTSMIARLEKAFQELNAIDVL [P0AB71]	5.42 ± 0.2	5.14 ± 0.69	4.73 ± 0.32	4.87 ± 0.47	12.19 ± 0.092	5.06 ± 0.15	5.07 ± 0.24	5.67 ± 0.37	9.46 ± 0.69	8.4 ± 0.15	5.84 ± 0.2	3.19 ± 0.097
MSKIFEDNSLTIGHTPLVRLNRIGNGRILAKVESRNPSFSVKCRIGANMIWDAEKRGVLKPGVELVEPTSGNTGIALAYVAAARGYKLTLTMPETMSIERRKLLKALGANLVLTEGAKGMKGAIQKAEEIVASNPEKYLLLQQFSNPANPEIHEKTTGPEIWEDTDGQVDVFIAGVGTGGTLTGVSRYIKGTKGKTDLISVAVEPTDSPVIAQALAGEEIKPGPHKIQGIGAGFIPANLDLKLVDKVIGITNEEAISTARRLMEEEGILAGISSGAAVAAALKLQEDESFTNKNIVVILPSSGERYLSTALFADLFTEKELQQ [P0ABK5]	5.312 ± 0.029	5.14 ± 0.39	4.53 ± 0.22	4.68 ± 0.36	13.1 ± 1.2	4.87 ± 0.096	5.03 ± 0.31	6.1 ± 0.7	11.8 ± 2.1	8.22 ± 0.3	5.72 ± 0.34	3.45 ± 0.18
